In US20130157953A1, “TREATMENT OF CARDIAC CONDITIONS” (Zealand Pharma A/S, priority 2010, published 2013):
Numbered stars: 1 amine (or outer) side, 2 acyl side, 3 side chain; on linkers, the order of the positions; unused ones are H or OH. Bridge positions count the residues as written; N and C are the ends. Square brackets hold non-standard residues; d marks the D form. Side chains are listed from the residue outwards. * marks the point of attachment. γGlu = O=C(O)[C@H](CCC(=O)[*:2])N[*:1]; Palmitoyl = CCCCCCCCCCCCCCCC(=O)*; Lauroyl = CCCCCCCCCCCC(=O)*; Aib = CC(C)(N)C(=O)O; Aoc = NCCCCCCCC(=O)O

B1: Compound 207 (peptide)
peptide: H-H[Aib]QGTFTSDYSKYLDSK([γGlu-Palmitoyl])AARDFVAWLLRA-NH2
SMILES: CCCCCCCCCCCCCCCC(=O)N[C@@H](CCC(=O)NCCCC[C@H](NC(=O)[C@H](CO)NC(=O)[C@H](CC(=O)O)NC(=O)[C@H](CC(C)C)NC(=O)[C@H](Cc1ccc(O)cc1)NC(=O)[C@H](CCCCN)NC(=O)[C@H](CO)NC(=O)[C@H](Cc1ccc(O)cc1)NC(=O)[C@H](CC(=O)O)NC(=O)[C@H](CO)NC(=O)[C@@H](NC(=O)[C@H](Cc1ccccc1)NC(=O)[C@@H](NC(=O)CNC(=O)[C@H](CCC(N)=O)NC(=O)C(C)(C)NC(=O)[C@@H](N)Cc1c[nH]cn1)[C@@H](C)O)[C@@H](C)O)C(=O)N[C@@H](C)C(=O)N[C@@H](C)C(=O)N[C@@H](CCCNC(=N)N)C(=O)N[C@@H](CC(=O)O)C(=O)N[C@@H](Cc1ccccc1)C(=O)N[C@H](C(=O)N[C@@H](C)C(=O)N[C@@H](Cc1c[nH]c2ccccc12)C(=O)N[C@@H](CC(C)C)C(=O)N[C@@H](CC(C)C)C(=O)N[C@@H](CCCNC(=N)N)C(=O)N[C@@H](C)C(N)=O)C(C)C)C(=O)O
B2: Compound 209 (peptide)
peptide: H-H[Aib]QGTFTSDYSKYLDSKAAHDFVEWLLK([γGlu-Palmitoyl])A-NH2
SMILES: CCCCCCCCCCCCCCCC(=O)N[C@@H](CCC(=O)NCCCC[C@H](NC(=O)[C@H](CC(C)C)NC(=O)[C@H](CC(C)C)NC(=O)[C@H](Cc1c[nH]c2ccccc12)NC(=O)[C@H](CCC(=O)O)NC(=O)[C@@H](NC(=O)[C@H](Cc1ccccc1)NC(=O)[C@H](CC(=O)O)NC(=O)[C@H](Cc1c[nH]cn1)NC(=O)[C@H](C)NC(=O)[C@H](C)NC(=O)[C@H](CCCCN)NC(=O)[C@H](CO)NC(=O)[C@H](CC(=O)O)NC(=O)[C@H](CC(C)C)NC(=O)[C@H](Cc1ccc(O)cc1)NC(=O)[C@H](CCCCN)NC(=O)[C@H](CO)NC(=O)[C@H](Cc1ccc(O)cc1)NC(=O)[C@H](CC(=O)O)NC(=O)[C@H](CO)NC(=O)[C@@H](NC(=O)[C@H](Cc1ccccc1)NC(=O)[C@@H](NC(=O)CNC(=O)[C@H](CCC(N)=O)NC(=O)C(C)(C)NC(=O)[C@@H](N)Cc1c[nH]cn1)[C@@H](C)O)[C@@H](C)O)C(C)C)C(=O)N[C@@H](C)C(N)=O)C(=O)O
B3: Compound 216 (peptide)
peptide: H-H[Aib]QGTFTSDYSKYLDSK([Aoc-Palmitoyl])AAHDFVEWLLSA-NH2
SMILES: CCCCCCCCCCCCCCCC(=O)NCCCCCCCC(=O)NCCCC[C@H](NC(=O)[C@H](CO)NC(=O)[C@H](CC(=O)O)NC(=O)[C@H](CC(C)C)NC(=O)[C@H](Cc1ccc(O)cc1)NC(=O)[C@H](CCCCN)NC(=O)[C@H](CO)NC(=O)[C@H](Cc1ccc(O)cc1)NC(=O)[C@H](CC(=O)O)NC(=O)[C@H](CO)NC(=O)[C@@H](NC(=O)[C@H](Cc1ccccc1)NC(=O)[C@@H](NC(=O)CNC(=O)[C@H](CCC(N)=O)NC(=O)C(C)(C)NC(=O)[C@@H](N)Cc1c[nH]cn1)[C@@H](C)O)[C@@H](C)O)C(=O)N[C@@H](C)C(=O)N[C@@H](C)C(=O)N[C@@H](Cc1c[nH]cn1)C(=O)N[C@@H](CC(=O)O)C(=O)N[C@@H](Cc1ccccc1)C(=O)N[C@H](C(=O)N[C@@H](CCC(=O)O)C(=O)N[C@@H](Cc1c[nH]c2ccccc12)C(=O)N[C@@H](CC(C)C)C(=O)N[C@@H](CC(C)C)C(=O)N[C@@H](CO)C(=O)N[C@@H](C)C(N)=O)C(C)C
B4: Compound 210 (peptide)
peptide: H-H[Aib]QGTFTSDYSKYLDSK([γGlu-Palmitoyl])AAHDFVEWLLKA-NH2
modifications: lactam 24-28
SMILES: CCCCCCCCCCCCCCCC(=O)N[C@@H](CCC(=O)NCCCC[C@H](NC(=O)[C@H](CO)NC(=O)[C@H](CC(=O)O)NC(=O)[C@H](CC(C)C)NC(=O)[C@H](Cc1ccc(O)cc1)NC(=O)[C@H](CCCCN)NC(=O)[C@H](CO)NC(=O)[C@H](Cc1ccc(O)cc1)NC(=O)[C@H](CC(=O)O)NC(=O)[C@H](CO)NC(=O)[C@@H](NC(=O)[C@H](Cc1ccccc1)NC(=O)[C@@H](NC(=O)CNC(=O)[C@H](CCC(N)=O)NC(=O)C(C)(C)NC(=O)[C@@H](N)Cc1c[nH]cn1)[C@@H](C)O)[C@@H](C)O)C(=O)N[C@@H](C)C(=O)N[C@@H](C)C(=O)N[C@@H](Cc1c[nH]cn1)C(=O)N[C@@H](CC(=O)O)C(=O)N[C@@H](Cc1ccccc1)C(=O)N[C@H](C(=O)N[C@H]1CCC(=O)NCCCC[C@@H](C(=O)N[C@@H](C)C(N)=O)NC(=O)[C@H](CC(C)C)NC(=O)[C@H](CC(C)C)NC(=O)[C@H](Cc2c[nH]c3ccccc23)NC1=O)C(C)C)C(=O)O
B5: Compound 213 (peptide)
peptide: H-H[Aib]QGTFTSDYSKYLDSKAAK([γGlu-Palmitoyl])DFVAWLLRA-NH2
SMILES: CCCCCCCCCCCCCCCC(=O)N[C@@H](CCC(=O)NCCCC[C@H](NC(=O)[C@H](C)NC(=O)[C@H](C)NC(=O)[C@H](CCCCN)NC(=O)[C@H](CO)NC(=O)[C@H](CC(=O)O)NC(=O)[C@H](CC(C)C)NC(=O)[C@H](Cc1ccc(O)cc1)NC(=O)[C@H](CCCCN)NC(=O)[C@H](CO)NC(=O)[C@H](Cc1ccc(O)cc1)NC(=O)[C@H](CC(=O)O)NC(=O)[C@H](CO)NC(=O)[C@@H](NC(=O)[C@H](Cc1ccccc1)NC(=O)[C@@H](NC(=O)CNC(=O)[C@H](CCC(N)=O)NC(=O)C(C)(C)NC(=O)[C@@H](N)Cc1c[nH]cn1)[C@@H](C)O)[C@@H](C)O)C(=O)N[C@@H](CC(=O)O)C(=O)N[C@@H](Cc1ccccc1)C(=O)N[C@H](C(=O)N[C@@H](C)C(=O)N[C@@H](Cc1c[nH]c2ccccc12)C(=O)N[C@@H](CC(C)C)C(=O)N[C@@H](CC(C)C)C(=O)N[C@@H](CCCNC(=N)N)C(=O)N[C@@H](C)C(N)=O)C(C)C)C(=O)O
B6: Compound 206 (peptide)
peptide: H-H[Aib]QGTFTSDYSKYLDSK([γGlu-Palmitoyl])AAHDFVEWLLRA-NH2
SMILES: CCCCCCCCCCCCCCCC(=O)N[C@@H](CCC(=O)NCCCC[C@H](NC(=O)[C@H](CO)NC(=O)[C@H](CC(=O)O)NC(=O)[C@H](CC(C)C)NC(=O)[C@H](Cc1ccc(O)cc1)NC(=O)[C@H](CCCCN)NC(=O)[C@H](CO)NC(=O)[C@H](Cc1ccc(O)cc1)NC(=O)[C@H](CC(=O)O)NC(=O)[C@H](CO)NC(=O)[C@@H](NC(=O)[C@H](Cc1ccccc1)NC(=O)[C@@H](NC(=O)CNC(=O)[C@H](CCC(N)=O)NC(=O)C(C)(C)NC(=O)[C@@H](N)Cc1c[nH]cn1)[C@@H](C)O)[C@@H](C)O)C(=O)N[C@@H](C)C(=O)N[C@@H](C)C(=O)N[C@@H](Cc1c[nH]cn1)C(=O)N[C@@H](CC(=O)O)C(=O)N[C@@H](Cc1ccccc1)C(=O)N[C@H](C(=O)N[C@@H](CCC(=O)O)C(=O)N[C@@H](Cc1c[nH]c2ccccc12)C(=O)N[C@@H](CC(C)C)C(=O)N[C@@H](CC(C)C)C(=O)N[C@@H](CCCNC(=N)N)C(=O)N[C@@H](C)C(N)=O)C(C)C)C(=O)O
B7: Compound 208 (peptide)
peptide: H-H[Aib]QGTFTSDYSKYLDSK([γGlu-Palmitoyl])AAHDFVEWLLSA-NH2
SMILES: CCCCCCCCCCCCCCCC(=O)N[C@@H](CCC(=O)NCCCC[C@H](NC(=O)[C@H](CO)NC(=O)[C@H](CC(=O)O)NC(=O)[C@H](CC(C)C)NC(=O)[C@H](Cc1ccc(O)cc1)NC(=O)[C@H](CCCCN)NC(=O)[C@H](CO)NC(=O)[C@H](Cc1ccc(O)cc1)NC(=O)[C@H](CC(=O)O)NC(=O)[C@H](CO)NC(=O)[C@@H](NC(=O)[C@H](Cc1ccccc1)NC(=O)[C@@H](NC(=O)CNC(=O)[C@H](CCC(N)=O)NC(=O)C(C)(C)NC(=O)[C@@H](N)Cc1c[nH]cn1)[C@@H](C)O)[C@@H](C)O)C(=O)N[C@@H](C)C(=O)N[C@@H](C)C(=O)N[C@@H](Cc1c[nH]cn1)C(=O)N[C@@H](CC(=O)O)C(=O)N[C@@H](Cc1ccccc1)C(=O)N[C@H](C(=O)N[C@@H](CCC(=O)O)C(=O)N[C@@H](Cc1c[nH]c2ccccc12)C(=O)N[C@@H](CC(C)C)C(=O)N[C@@H](CC(C)C)C(=O)N[C@@H](CO)C(=O)N[C@@H](C)C(N)=O)C(C)C)C(=O)O
B8: Compound 214 (peptide)
peptide: H-H[Aib]QGTFTSDYSKYLDSK([γGlu-Lauroyl])AAHDFVEWLLSA-NH2
SMILES: CCCCCCCCCCCC(=O)N[C@@H](CCC(=O)NCCCC[C@H](NC(=O)[C@H](CO)NC(=O)[C@H](CC(=O)O)NC(=O)[C@H](CC(C)C)NC(=O)[C@H](Cc1ccc(O)cc1)NC(=O)[C@H](CCCCN)NC(=O)[C@H](CO)NC(=O)[C@H](Cc1ccc(O)cc1)NC(=O)[C@H](CC(=O)O)NC(=O)[C@H](CO)NC(=O)[C@@H](NC(=O)[C@H](Cc1ccccc1)NC(=O)[C@@H](NC(=O)CNC(=O)[C@H](CCC(N)=O)NC(=O)C(C)(C)NC(=O)[C@@H](N)Cc1c[nH]cn1)[C@@H](C)O)[C@@H](C)O)C(=O)N[C@@H](C)C(=O)N[C@@H](C)C(=O)N[C@@H](Cc1c[nH]cn1)C(=O)N[C@@H](CC(=O)O)C(=O)N[C@@H](Cc1ccccc1)C(=O)N[C@H](C(=O)N[C@@H](CCC(=O)O)C(=O)N[C@@H](Cc1c[nH]c2ccccc12)C(=O)N[C@@H](CC(C)C)C(=O)N[C@@H](CC(C)C)C(=O)N[C@@H](CO)C(=O)N[C@@H](C)C(N)=O)C(C)C)C(=O)O

molecular target: human glucagon-like peptide 1 receptor (GLP-1R) (human, UniProt P43220 24-463); assay: cell-based or functional assay

Row | EC50 (nM) GLP-1R; cAMP content, HEK293 cells expressing human GLP-1R [nM] | Binder
1 | 0.12 | B1
2 | 0.27 | B2
3 | 0.24 | B3
4 | 0.08 | B4
5 | 0.15 | B5
6 | 0.09 | B6
7 | 0.11 | B7
8 | 0.14 | B8

molecular target: human glucagon receptor (Glucagon-R) (human, UniProt P47871 26-477); assay: cell-based or functional assay
Sequence (P47871 26-477): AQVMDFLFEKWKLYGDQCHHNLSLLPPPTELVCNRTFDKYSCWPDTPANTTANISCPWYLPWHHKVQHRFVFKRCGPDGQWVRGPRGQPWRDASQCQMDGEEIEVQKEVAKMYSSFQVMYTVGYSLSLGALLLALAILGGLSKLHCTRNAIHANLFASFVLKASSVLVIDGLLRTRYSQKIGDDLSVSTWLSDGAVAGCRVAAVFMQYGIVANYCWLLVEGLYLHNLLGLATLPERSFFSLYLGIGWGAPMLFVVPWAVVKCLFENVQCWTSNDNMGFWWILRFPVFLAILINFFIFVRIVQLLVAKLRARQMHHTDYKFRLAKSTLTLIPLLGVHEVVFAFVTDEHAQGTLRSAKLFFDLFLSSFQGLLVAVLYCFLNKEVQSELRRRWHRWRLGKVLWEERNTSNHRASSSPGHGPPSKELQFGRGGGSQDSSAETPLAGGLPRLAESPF

Row | EC50 (nM) GuR; cAMP content, HEK293 cells expressing the human glucagon receptor [nM] | Binder
9 | 0.17 | B1
10 | 0.27 | B2
11 | 0.46 | B3
12 | 0.26 | B4
13 | 0.63 | B5
14 | 0.16 | B6
15 | 0.16 | B7
16 | 0.78 | B8
